Legend:
[1] = tested on: spiral ganglion neurons (SGNs); assay: Survival of dissociated spiral ganglion neurons in serum-free culture; type: cell-based, rat; conditions: for survival-promoting effect on SGNs: P5 rat SGNs, neurotrophins 0.1-50 ng/ml
Experimental: FIG. 1 is a histogram depicting the effects of NT-4/5 on SGN survival. SGNs were prepared from P5 rats, plated and kept for 2 days in serum-free medium in the absence or presence of NT-4/5 at different concentrations. Viable SGNs were identified by labeling with a neurofilament monoclonal antibody (N52), viewed under a Zeiss Axiophot microscope, and counted using a grid ocular reticule covering an area of […]. For each culture, about 10 randomly selected fields were counted. Data were collected from 3 to 5 cultures and normalized as a percentage of the number of viable neurons in the control cultures in each of the experiments. The error bars represent SEM.
FIG. 2 is a histogram depicting the effects of different neurotrophins on SGN survival. SGNs were prepared from P5 rats and maintained for 2 days in serum-free medium without or with different neurotrophins at different concentrations. Quantitation of viable SGNs was made in the same way as in FIG. 1 and the error bars are SEM. […] Difference between NT-3 and NT-4/5 or BDNF was very significant at all doses (P<0.001). No statistical difference was found between NT-4/5 and BDNF except the dose of 0.1 ng/ml (P<0.01).
Identical results (not shown) were also obtained with a different neuronal marker, a monoclonal antibody 3A10 (Furley et al., 1990). SGNs were dissociated from postnatal day 5 (P5) rat cochleae and plated in defined serum-free medium. […] The enzyme was inactivated with a mixture of 0.005% soybean trypsin inhibitor (Sigma) and 0.005% DNase (Worthington) before trituration with 0.05% DNase in Eagle's Basal Medium (“BME”). The dissociated cells were preplated on a 35 mm untreated tissue culture dish for 25 min to enrich the neuronal population. Under these experimental procedures, about 10% of the cell population were spiral ganglion neurons (“SGNs”) as determined by immunocytochemistry with a monoclonal antibody (N52; Boehringer) against neurofilaments (200 kd; Boehringer). […] Cells were plated at a density of 80,000/well. In control cultures about 75% of SGNs died after 2 days, presumably due to a lack of growth factors.

[2] = tested on: hair cells in cochlear explants; assay: Protective effects in cochlear explant cultures co-treated with ototoxins, hair cell count; type: cell-based, rat; conditions: for protective effects on hair cells against ototoxins: growth factor added together with ototoxin, data not shown
Experimental: (§1) FIGS. 9A and 9B depict quantitation of protective effects of NT-4/5 on SGNs (FIG. 9A) and hair cells (FIG. 9B). […] The same experimental procedures were performed as in FIGS. 6A and 6B. The error bars are SEM and ** indicate that as compared to the cultures containing an ototoxin alone, p<0.001. “Con” indicates control culture.
(§2) The protective effect of neurotrophins against ototoxicity was determined in the organotypic cultures of postnatal cochlear explants described in the Examples above. […] A human recombinant neurotrophin (Genentech, Inc.) or other growth factors, alone or in combination, was added to the culture at the same time the ototoxin was added.
(§3) Two days after treatment with ototoxins or co-treatment with ototoxins and neurotrophins (or other growth factors), the cochlear explant cultures were fixed in 4% paraformaldehyde in 0.1 M phosphate buffer (pH 7.4) for 30 min, washed in PBS, and subjected to double histochemical staining of the cochlear explant cultures. After incubation with the monoclonal antibody N52 against neurofilament protein (200 kd) in 1% Triton X100 containing 3% normal goat serum (“NGS”) for 2 days at 4° C., the explants were incubated with a Texas red-conjugated goat anti-mouse secondary antibody (1:70; Cappel) at room temperature for 40 min. The preparations were then stained with FITC-conjugated phalloidin (0.5 μg/ml; Sigma) for 45 min, washed in PBS and mounted in Fluoromount-G (Southern Biotechnology Associates, Birmingham, Ala.) which contains an anti-fading agent.

[3] = tested on: SGNs in cochlear explants; assay: Protective effects in cochlear explant cultures co-treated with ototoxins, SGN peripheral axon count; type: cell-based, rat; conditions: for protective effects on SGNs against ototoxins: growth factor added together with ototoxin, data not shown
Experimental: as §1
FIG. 10 depicts quantitation of neuroprotection of different neurotrophins against sodium salicylate (Sal) and gentamicin (Gent). […] Sodium salicylate (5 mM) or gentamicin (3 mM) was added either alone or in combination with one of the neurotrophins (20 ng/ml) to 2-day cultures and the cultures were kept for 2 more days. The same experimental procedures were performed as in FIGS. 6A and 6B. […] The error bars are SEM and ** indicate that as compared to the cultures containing an ototoxin alone, p<0.001.
as §2, §3

[4] = tested on: spiral ganglion neurons (SGNs); assay: Neurotrophin protection of dissociated SGNs against cisplatin neurotoxicity; type: cell-based, rat; conditions: 10 ng/ml neurotrophin
Excerpt: Quantitation of viable SGNs was done in the same way as in FIG. 1. The error bars stand for SEM. […] While no difference was found between cultures containing NT-4/5 and cultures containing BDNF, the difference between cultures containing NT-3 and cultures containing NT-4/5 or BDNF was statistically very significant (P<0.001).

trkC receptor = trkC receptor (Homo sapiens, UniProt Q16288); conditions: compared with NT-3; cited from earlier work
trkC receptor, sequence (Q16288 32-839): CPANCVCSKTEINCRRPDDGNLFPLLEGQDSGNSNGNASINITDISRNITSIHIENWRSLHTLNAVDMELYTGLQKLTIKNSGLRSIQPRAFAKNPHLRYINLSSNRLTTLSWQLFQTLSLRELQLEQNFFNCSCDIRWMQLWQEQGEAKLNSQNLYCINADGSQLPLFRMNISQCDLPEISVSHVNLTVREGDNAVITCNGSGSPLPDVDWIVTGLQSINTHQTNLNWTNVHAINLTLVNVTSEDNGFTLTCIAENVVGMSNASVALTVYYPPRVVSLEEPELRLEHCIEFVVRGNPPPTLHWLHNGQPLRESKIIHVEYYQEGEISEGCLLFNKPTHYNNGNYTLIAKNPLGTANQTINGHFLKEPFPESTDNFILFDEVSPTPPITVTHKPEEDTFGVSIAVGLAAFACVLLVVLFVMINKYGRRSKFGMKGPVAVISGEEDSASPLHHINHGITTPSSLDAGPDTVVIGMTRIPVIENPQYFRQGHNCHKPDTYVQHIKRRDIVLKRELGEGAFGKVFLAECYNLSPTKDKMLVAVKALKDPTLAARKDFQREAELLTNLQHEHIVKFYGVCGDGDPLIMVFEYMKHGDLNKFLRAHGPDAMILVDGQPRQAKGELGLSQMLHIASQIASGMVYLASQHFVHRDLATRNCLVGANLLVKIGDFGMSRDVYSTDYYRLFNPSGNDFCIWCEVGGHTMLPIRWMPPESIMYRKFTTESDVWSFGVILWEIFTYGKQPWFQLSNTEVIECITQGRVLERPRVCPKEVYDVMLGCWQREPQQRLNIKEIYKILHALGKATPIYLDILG

B1: TGF-β3: transforming growth factor (protein, UniProt P10600 301-412, looked up)
Transforming growth factor …: ALDTNYCFRNLEENCCVRPLYIDFRQDLGWKWVHEPKGYYANFCSGPCPYLRSADTTHSTVLGLYNTLNPEASASPCCVPQDLEPLTILYYVGRTPKVEQLSNMVVKSCKCS
survival-promoting effect on SGNs ([1]; 2 days, serum-free medium): No survival-promoting effects
protective effects on hair cells against ototoxins [2]: did not show detectable protective effects
protective effects on SGNs against ototoxins [3]: did not show detectable protective effects

B2: TGF-β2: transforming growth factor (protein, UniProt P61812 303-414, looked up)
Transforming growth factor …: ALDAAYCFRNVQDNCCLRPLYIDFKRDLGWKWIHEPKGYNANFCAGACPYLWSSDTQHSRVLSLYNTINPEASASPCCVSQDLEPLTILYYIGKTPKIEQLSNMIVKSCKCS
survival-promoting effect on SGNs ([1]; 2 days, serum-free medium): No survival-promoting effects
protective effects on hair cells against ototoxins [2]: did not show detectable protective effects
protective effects on SGNs against ototoxins [3]: did not show detectable protective effects

B3: FGF-5: growth factor (R & D Systems) (protein, UniProt P12034 21-268, looked up)
Fibroblast growth factor 5: HGEKRLAPKGQPGPAATDRNPRGSSSRQSSSSAMSSSSASSSPAASLGSQGSGLEQSSFQWSPSGRRTGSLYCRVGIGFHLQIYPDGKVNGSHEANMLSVLEIFAVSQGIVGIRGVFSNKFLAMSKKGKLHASAKFTDDCKFRERFQENSYNTYASAIHRTEKTGREWYVALNKRGKAKRGCSPRVKPQHISTHFLPRFKQSEQPELSFTVTVPEKKKPPSPIKPKIPLSAPRKNTNSVKYRLKFRFG
protective effects on hair cells against ototoxins [2]: did not show detectable protective effects
protective effects on SGNs against ototoxins [3]: did not show detectable protective effects

B4: FGF-7: growth factor (R&D Systems) (protein, UniProt P21781 32-194, looked up)
Fibroblast growth factor 7: CNDMTPEQMATNVNCSSPERHTRSYDYMEGGDIRVRRLFCRTQWYLRIDKRGKVKGTQEMKNNYNIMEIRTVAVGIVAIKGVESEFYLAMNKEGKLYAKKECNEDCNFKELILENHYNTYASAKWTHNGGEMFVALNQKGIPVRGKKTKKEQKTAHFLPMAIT
protective effects on hair cells against ototoxins [2]: did not show detectable protective effects
protective effects on SGNs against ototoxins [3]: did not show detectable protective effects

B5: neurotrophin-4/5 (protein, UniProt P34130 81-210, looked up)
Neurotrophin-4: GVSETAPASRRGELAVCDAVSGWVTDRRTAVDLRGREVEVLGEVPAAGGSPLRQYFFETRCKADNAEEGGPGAGGGGCRGVDRRHWVSECKAKQSYVRALTADAQGRVGWRWIRIDTACVCTLLSRTGRA
modifications: Neurotrophin-4
potency on SGN survival compared with other neurotrophins ([1]; 0.1 ng/ml): more potent than BDNF
maximal effect, increase in number of surviving SGNs ([1]; 10 ng/ml, 2 days, serum-free medium, vs control cultures): approximately 3 fold
survival-promoting effect on SGNs ([1]; 2 days, serum-free medium): greatly enhanced the number of surviving SGNs in a dose-dependent manner
synergistic/additive effects on SGN survival when added together with BDNF or NT-3 ([1]; saturated concentrations): no additive effects
percentage of surviving SGNs compared with control cultures lacking cisplatin ([4]; 1 μg/ml or 2 μg/ml cisplatin, 2 days): higher than that in the control cultures lacking cisplatin
protection of SGNs compared with cultures containing cisplatin alone ([4]; 4 μg/ml cisplatin): significantly protected SGNs from cell death
survival level, % of control cultures in the absence of cisplatin ([4]; 4 μg/ml cisplatin, 2 days): 70%
number of hair cells in control cultures ([2]; 20 ng/ml, no ototoxin): did not enhance
neuroprotection of SGNs against sodium salicylate and gentamicin ([3]; 20 ng/ml neurotrophin, sodium salicylate 5 mM or gentamicin 3 mM): significant neuroprotection
number of SGNs in control cultures ([3]; 20 ng/ml, no ototoxin): did not enhance
protection of SGNs from the three ototoxins ([3]; 20 ng/ml, sodium salicylate 5 mM, gentamicin 3 mM or cisplatin 4 μg/ml, 2 days co-treatment): significantly protected SGNs from the three ototoxins

B6: E92A NT-3: NT-3 with mutation at position E92 to alanine (protein, UniProt P20783 139-257, looked up, variant E92A)
Neurotrophin-3: YAEHKSHRGEYSVCDSESLWVTDKSSAIDIRGHQVTVLGEIKTGNSPVKQYFYETRCKEARPVKNGCRGIDDKHWNSQCKTSQTYVRALTSANNKLVGWRWIRIDTSCVCALSRKIGRT
modifications: Neurotrophin-3
notes: NT-3 with mutation at position E92 to alanine
trkC binding of NT-3 mutant (trkC receptor): increased trkC binding

From patent US6429191B1, “Treatment of hearing impairments” (Genentech, Inc., priority 1996, dated 2002)
